This note sets out measurements from PMC6321010, “Interaction of the GTPase Elongation Factor Like-1 with the Shwachman-Diamond Syndrome Protein and Its Missense Mutations” (International Journal of Molecular Sciences, 2018).

The target in test [1] is T1, human Elongation Factor Like-1 (EFL1) (human, UniProt Q7Z2Z2 1-1120).
T1 construct: human EFL1, GTPase, said to comprise 1120 residues; the expressed protein is fused to a TEV recognition site and a hexahistidine tag at the C-terminus; also called human EFL1; GTPase Elongation Factor Like-1; source: S. cerevisiae BCY123 (pRS426 backbone, GAL1/10 promoter), purified
T1 sequence: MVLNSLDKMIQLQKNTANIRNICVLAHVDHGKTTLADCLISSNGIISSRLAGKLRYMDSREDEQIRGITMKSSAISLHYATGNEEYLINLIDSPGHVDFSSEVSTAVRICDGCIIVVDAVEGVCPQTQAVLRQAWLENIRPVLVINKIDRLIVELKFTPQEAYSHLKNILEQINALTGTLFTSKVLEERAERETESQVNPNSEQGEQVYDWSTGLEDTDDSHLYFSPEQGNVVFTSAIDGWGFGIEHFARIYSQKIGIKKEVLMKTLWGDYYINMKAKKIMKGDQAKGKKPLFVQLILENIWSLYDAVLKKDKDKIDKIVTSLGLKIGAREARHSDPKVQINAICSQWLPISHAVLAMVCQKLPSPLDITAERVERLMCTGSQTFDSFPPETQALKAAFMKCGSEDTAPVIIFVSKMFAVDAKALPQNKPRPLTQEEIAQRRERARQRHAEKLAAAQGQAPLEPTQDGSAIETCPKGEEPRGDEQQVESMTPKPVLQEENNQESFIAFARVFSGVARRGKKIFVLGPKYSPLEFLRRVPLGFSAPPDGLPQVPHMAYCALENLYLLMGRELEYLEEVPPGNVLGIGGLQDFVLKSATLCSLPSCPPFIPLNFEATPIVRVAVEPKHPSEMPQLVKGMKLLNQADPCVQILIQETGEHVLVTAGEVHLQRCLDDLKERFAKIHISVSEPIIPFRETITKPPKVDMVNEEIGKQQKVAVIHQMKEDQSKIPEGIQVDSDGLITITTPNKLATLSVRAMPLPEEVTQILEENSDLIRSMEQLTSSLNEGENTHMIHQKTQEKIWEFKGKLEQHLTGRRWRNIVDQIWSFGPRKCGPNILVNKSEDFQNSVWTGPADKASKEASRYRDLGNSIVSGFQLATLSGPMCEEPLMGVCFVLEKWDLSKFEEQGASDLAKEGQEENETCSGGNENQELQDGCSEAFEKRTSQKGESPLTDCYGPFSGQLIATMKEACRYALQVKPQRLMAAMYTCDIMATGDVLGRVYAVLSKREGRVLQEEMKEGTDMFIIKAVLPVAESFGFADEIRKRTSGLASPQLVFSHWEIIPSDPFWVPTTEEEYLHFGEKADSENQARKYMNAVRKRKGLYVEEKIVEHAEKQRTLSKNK
Put plainly: fluorescence polarisation; fluorescence anisotropy; 2 µL additions of 40-90 µM human EFL1 titrated into 300 µL of 0.1 µM Lumio Green-labelled human SBDS-FlAsH construct; 25 °C; 50 mM Tris-HCl pH 8, 300 mM NaCl, 5 mM β-mercaptoethanol; fitted to a single-site or a two different binding sites model. To be noted: both partners purified. (Fluorescence polarisation rises when a labelled molecule tumbles more slowly, as on binding a larger partner.)

Test [2] has as its target T2, yeast SBDS orthologue Sdo1 (recombinant, for SAXS) (yeast (S. cerevisiae), UniProt Q07953 1-250).
T2 construct: Sdo1, the yeast orthologue of SBDS; called the full-length Sdo1; source: E. coli C41 (pRSET plasmid), purified by conventional chromatographic techniques
T2 sequence (looked up): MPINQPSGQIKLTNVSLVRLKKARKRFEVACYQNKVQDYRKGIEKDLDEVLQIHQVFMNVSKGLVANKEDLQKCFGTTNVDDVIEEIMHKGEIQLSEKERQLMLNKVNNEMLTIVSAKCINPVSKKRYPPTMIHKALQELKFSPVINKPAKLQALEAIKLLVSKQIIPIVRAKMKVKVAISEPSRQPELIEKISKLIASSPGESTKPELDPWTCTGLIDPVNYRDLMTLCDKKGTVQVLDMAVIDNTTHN
In words: SAXS coupled to on-line size exclusion chromatography; yeast Sdo1, EFL1 and the complex EFL1•Sdo1 at 10, 6.5 and 8 mg/mL injected onto a Shodex KW-403 column; 50 mM Tris pH 8.0, 10% glycerol, 300 mM NaCl, 5 mM MgCl2. Particulars: both partners purified. A general note: SEC sorts molecules by how far they enter the pores of the column.

B1: human SBDS domain 1 (residues 1-94) with C-terminal FlAsH tag, labelled with Lumio Green (domain or fragment, UniProt Q9Y3A5 1-94, looked up)
chain: MSIFTPTNQIRLTNVAVVRMKRAGKRFEIACYKNKVVGWRSGVEKDLDEVLQTHSVFVNVSKGQVAKKEDLISAFGTDDQTEICKQILTKGEVQ
modifications: Lumio Green dye (4',5'-bis(1,3,2-dithioarsolan-2-yl) fluorescein) on the C-terminal FlAsH tag
notes: human SBDS, domain 1, residues 1-94; also called domain 1 of SBDS; source: E. coli C41 (pRSET plasmid), purified by conventional chromatographic techniques; not shown: FlAsH tag (Cys-Cys-Pro-Gly-Cys-Cys), C-terminal, kept
As for B1, binding in test [1] was characterised by a dissociation constant (Kd) of 15.2 ± 0.72 µM.

B2: human SBDS domain 2 (residues 94-175) with C-terminal FlAsH tag, labelled with Lumio Green (domain or fragment, UniProt Q9Y3A5 94-175, looked up)
chain: QVSDKERHTQLEQMFRDIATIVADKCVNPETKRPYTVILIERAMKDIHYSVKTNKSTKQQALEVIKQLKEKMKIERAHMRLR
modifications: Lumio Green dye (4',5'-bis(1,3,2-dithioarsolan-2-yl) fluorescein) on the C-terminal FlAsH tag
notes: human SBDS, domain 2, residues 94-175; also called domain 2 of SBDS; source: E. coli C41 (pRSET plasmid), purified by conventional chromatographic techniques; not shown: FlAsH tag (Cys-Cys-Pro-Gly-Cys-Cys), C-terminal, kept
For B2, the Kd – broadly, the constant that tells how readily two partners part at equilibrium – in test [1] was determined as 10.8 ± 0.9 µM.

B3: yeast EFL1 (recombinant, for SAXS) (enzyme, yeast (S. cerevisiae), UniProt P53893 1-1110, looked up)
chain: MPRVESETYKRLQNDPSCIRNICIVAHVDHGKTSLSDSLLASNGIISQRLAGKIRFLDARPDEQLRGITMESSAISLYFRVLRKQEGSDEPLVSEHLVNLIDSPGHIDFSSEVSAASRLCDGAVVLVDVVEGVCSQTVTVLRQCWTEKLKPILVLNKIDRLITELQLTPQEAYIHLSKVIEQVNSVIGSFFANERQLDDLFWREQLEKNENAEYIEKDDSGIYFNPTDNNVIFASAIDGWGFNIGQLAKFYEQKLGAKRENLQKVLWGDFYMDPKTKKIINNKGLKGRSLKPLFTSLILENIWKIYQNIITSRDSEMVEKIAKTLNIKLLARDLRSKDDKQLLRTIMGQWLPVSTAVLLTVIEKLPSPLESQTDRLNTILVSESDTAAMDPRLLKAMKTCDKEGPVSAYVSKMLSIPREELPVESKRIASSDELMERSRKAREEALNAAKHAGMVENMAMMDLNDNSKNTSDLYKRAKDTVMTPEVGEQTKPKPSRNNDVFCVVSEPSSALDLEFEYEGEDDSDSQDNFGLDFVPTDIDPNDPLSSMFEYEEEDPLLESIKQISEDVNDEVDDIFDEKEECLVAFARIYSGTLRVGQEISVLGPKYDPKCPEEHIETAIITHLYLFMGKELVPLDVCPSGNIVGIRGLAGKVLKSGTLIEKGVQGVNLAGVNFHFTPIVRVAVEPANPVEMSKLVRGLKLLDQADPCVHTYVENTGEHILCTAGELHLERCLKDLTERFAGIEITHSEPAIPYRETFLSASDMNPPQNSQLGRGVHELLLSQYKITFRTFPLSGKVTDFLSQHQNSIKNILKTSTSSMDPVIESTGSSFLDKKSLLVAFEEVINQEEKSRELLSGFKVKLAGFGPSRVGCNILLSQDNLLGSLFEGTPAAFEYSDSIKNGFQLAVSEGPLANEPVQGMCVLVESVHKMSQDEIESIEDPRYQQHIVDLSGRLITSTRDAIHEAFLDWSPRIMWAIYSCDIQTSVDVLGKVYAVILQRHGKIISEEMKEGTPFFQIEAHVPVVEAFGLSEDIRKRTSGAAQPQLVFSGFECIDLDPFWVPTTEEELEELGDTADRENIARKHMNAIRRRKGLFIEEKVVENAEKQRTLKKN
notes: yeast EFL1 (GTPase); the model's rigid parts run over residues 1-1110; source: S. cerevisiae BCY123 (pRS426 backbone, GAL1/10 promoter), purified
B3: the stoichiometry N (commonly the number of molecules, sites or subunits per partner or assembly) in test [2] turned out to be 1.

B4: human SBDS domains 2-3 (residues 94-250) with C-terminal FlAsH tag, labelled with Lumio Green (domain or fragment, UniProt Q9Y3A5 94-250, looked up)
chain: QVSDKERHTQLEQMFRDIATIVADKCVNPETKRPYTVILIERAMKDIHYSVKTNKSTKQQALEVIKQLKEKMKIERAHMRLRFILPVNEGKKLKEKLKPLIKVIESEDYGQQLEIVCLIDPGCFREIDELIKKETKGKGSLEVLNLKDVEEGDEKFE
modifications: Lumio Green dye (4',5'-bis(1,3,2-dithioarsolan-2-yl) fluorescein) on the C-terminal FlAsH tag
notes: human SBDS, domains 2-3, residues 94-250; also called construct consisting of domains 2-3 of SBDS; source: E. coli C41 (pRSET plasmid), purified by conventional chromatographic techniques; not shown: FlAsH tag (Cys-Cys-Pro-Gly-Cys-Cys), C-terminal, kept
With B4, the dissociation constant Kd in test [1] is 4.6 ± 0.3 µM.
